Tested on: pathway specific substrates
Experiment: Enzyme functionality of pathway enzyme homologs and fusion constructs in lysed E. coli cell extracts, product by HPLC
Format: biochemical, E. coli BL21
Conditions: recombinant E. coli BL21 clone, lysed cell extract
Description: As per one of the possible implementations of the present disclosure, two proteins—cinnamate-4-hydroxylate (C4H) and 4-coumaroyl CoA-ligase (4CL) were expressed as one fusion protein. Also, other two proteins which were expressed as one fusion protein were hydroxycinnamoyl-CoA quinate hydroxycinnamoyltransferase (HCT) and p-coumaroyl quinate 3′-hydroxylase (HCTC3H). The fusion gene and the corresponding fusion protein was prepared using the following method. […] The enzyme fusion constructs were made for the selected genes (Table 5). Pathway genes and the fusion constructs were individually cloned in E. coli expression vector pET28+ under T7 promoter and transformed in E. coli BL21 cells. Recombinant bacterial cells were induced with IPTG and enzyme functionality was tested with pathway specific substrates (Table 5) using lysed E. coli cell extracts. HPLC analysis was carried out to quantify the product formation and in turn shortlisting of efficient enzymes for functional pathway assembly towards Etoposide in E. coli.
The E. coli transformants were grown overnight at 37° C. in 1 ml of M9 minimal media containing ampicillin (100 mg/1), in 96-well format. The next day, 150 μl of each culture was inoculated into 3 ml M9 minimal media containing ampicillin (100 mg/1), IPTG 0.1 mM in 24-well format, and incubated at 30° C. and 200 rpm for ˜20 hours. The following day, cells were spun down and pellets were resuspended in 100 μl of lysis buffer containing 10 mM Tris-HCl pH 8, 5 mM MgCl2, 1 mM CaCl2) and complete mini protease inhibitor EDTA-free (3 tablets/100 ml) (Hoffmann-La Roche, Basel, Switzerland) and frozen at −80° C. for at least 15 minutes to promote cell lysis. Pellets were thawed at room temperature and 50 μl of DNase mix (1 μl of 1.4 mg/ml DNase in H2O (˜80000 u/ml), 1.2 μl of MgCl2 500 mM and 47.8 μl of 4×PBS buffer solution) was added to each well. Plates were shaken at 500 rpm for 5 min at room temperature to allow degradation of genomic DNA. Plates were spun down at 4000 rpm for 30 min at 4° C. and six μl of the lysates were used in in vitro using appropriate substrates for enzymes as per Table 6. In each case, the resulting compounds were measured by HPLC. Results were analysed in comparison with the lysates expressing the corresponding controls (the empty plasmid). […]

[1] = substrate tested: Desmethylepipodophyllotoxin

B1: 2-Deoxy-d-ribose-5-phosphate aldolase (DERA) (SEQ ID NO: 50) Desulfatibacillum aliphaticivorans (protein)
chain: MTGPKICVVGACNIDLISYVERLPVLGETLHGKKFSMGFGGKGANQAVMAAKLGGEVAMVGKLGRDVFGENTLANFKKLGVNVSHVHFTEEAFSGVAPIAVDDNGANSIIIVTGASDLLSAEEIRAAENAIAKSKVLVCQLEIPMEQNLEALRIARKNNVPTIFNPAPARPGLPDELYQLSDIFCPNESETEILTGMPVETMEQAEQAAKALLERGPKTVILTLGERGCLLVDANGARHIPTRKVEAIDTTGAGDCFVGSLAFFLAAGKSLEDAINRANKIAAVSVCGQGTQSSFPGASELDPEILSDIQPAESQAPAMSAKDLAQYIDHTLLKPEAPLSAFDKICEEAILHQFRSVCVNSCKISYIAKKLKGTGVDACAVIGFPLGAMSTAAKAFEAKQAVMDGAAELDMVINVGALKSGDFDAVFDDIKAVRDAAPLPIILKVIIETCLLTDEEKARACRIAKAADADFVKTSTGFSTGGATLEDIALMRDTVGPYMGVKASGGIKDAKTAIAMIEAGATRIGAGAGVEIVSGLQSDADGSY
modifications: Depicts the amino acid sequence of 2-Deoxy-d- ribose-5-phosphate aldolase (DERA) of Desulfatibacillum aliphaticivorans
Enzyme activity in terms of product formation (in %) (substrate tested: Desmethylepipodophyllotoxin glucopyranoside): 83%

B2: hydroxycinnamoyl-CoA: quinate hydroxycinnamoyltransferase p-coumaroyl quinate 3′-hydroxylase fusion (HCTC3H) (SEQ ID NO: 14) Coffea canephora (protein, listed as Coffea canephora)
chain: MKIEVKESTMVRPAQETPGRNLWNSNVDLVVPNFHTPSVYFYRPTGSSNFFDAKVLKDALSRALVPFYPMAGRLKRDEDGRIEIECNGEGVLFVEAESDGVVDDFGDFAPTLELRRLIPAVDYSQGISSYALLVLQVTYFKCGGVSLGVGMRHHAADGFSGLHFINSWSDMARGLDVTLPPFIDRTLLRARDPPQPQFQHIEYQPPPALKVSPQTAKSDSVPETAVSIFKLTREQISALKAKSKEDGNTISYSSYEMLAGHVWRCACKARGLEVDQGTKLYIATDGRARLRPSLPPGYFGNVIFTATPIAIAGDLEFKPVWYAASKIHDALARMDNDYLRSALDYLELQPDLKALVRGAHTFKCPNLGITSWVRLPIHDADFGWGRPIFMGPGGIAYEGLSFILPSPTNDGSMSVAISLQGEHMKLFQSFLYDIGGGGSGGGGSGGGGSMALLLILLPVAFIFLAYSLYERLRFKLPPGPRPKPVVGNIYDIKPVRFKCYAEWSKLYGPIFSVYFGSQLNTVVNTAELAKEVLKDNDQQLADRYRSRPSARMSRNGQDLIWADYGPHYVKVRKLCNLELFTPKRLEGLRPLREDEVTAMVDSIFKDCTKPENKGKSLLMRNYLGSVAFNNITRLTFGKRFMNSEGVVDEQGQEFKGIVSNGIRIGAKLSVADHIPWLRWMFVGENEDLDKHNARRDKLTRMIMEEHTLARQKSGNTKQHFVDALLTLQKQYELSDDTVIGLLWDMITAGMDTTTISVEWAMAELVKNPRVQQKAQEELDRVIGSDRIMTEADFAKLPYLQCVAKEALRLHPPTPLMLPHRANANVKIGGYDIPKGSIVHVNVWAIARDPAAWKNPLEFRPERFLEEDVDIKGHDYRLLPFGAGRRICPGAQLALNLVTSMLGHLLHHFTWSPPPGVRPEEIDLEESPGTVTYMRTPLQAVATPRLPAHLYNRVPVE
Enzyme activity in terms of product formation (in %) (substrate tested: Coumaroyl coA): 89%

B3: Glycosyltransferase (UGT) (SEQ ID NO: 44) Lycium barbarum (protein)
chain: MGHLVSTVEMAKQLVDREDQLSITVLIMTLPTETKIPSYTKSLSSNYTSRIRLLELTQPETSVNMGSATHPMKFMSEFITSYKGRVKDAVADMFSSLSSVKLAGFVIDMFCTAMIDVANDFGVPSYLFYTSGAAMLGLQFHFQSLISQNVLSYLDSESEVLIPTYINPVPVKFLPGLILDNDEYSIMFLDLAGRFKETKGIMVNTFVEVESHALKALSDDEKIPPIYPVGPILNLGGGNDGHGEEYDSIMKWLDGQPNSSVVFLCFGSMGSFEEDQVKEVANALESSGYQFLWSLRQPPPKDKLQFPSEFENLEEVLPEGFLQRTKGRGKMIGWAPQVAILSHPSVGGFVSHCGWNSTLESVRSGVPMATWPMYAEQQSNAFQLVKDLEMAVEIKMDYRKDFMTINQPVLVKAEEIGNGIRQLMDLVNKIRAKVRKMKEKSEAAIMEGGSSYVALGNFVETVMKS
modifications: Depcits the amino acid sequence of Glycosyltransferase (UGT of Lycium barbarum)
Enzyme activity in terms of product formation (in %) [1]: 67%

B4: Glycosyltransferase (UGT) (SEQ ID NO: 46) Cicer arietinum (protein, listed as Cicer arietinum)
chain: MKKIEVVFIPSPGVGHLISTLEFANLLINRNNRLNITVLVINFPKTVEKQTNYSLTESENLHVINLPQTTTHVPSTSDVGNSISALVETQKSNVKQAVSNLTGTLAAFVVDMFCTTMIDVANELGVPSLVFFTSGVAFLGLMLHLHTIWEQQDTELLLQQDELDIPSFANPVATNTLPTLVLRKEWESSFIKYGNGLKKASGIIVNSFHELEPHAVRSFLEDPTLRDLPIYPVGPILNPKSNVDSDDVIKWLDDQPPSSVVFLCFGSMGTFDEEQVREIALAIERSGVRFLWSLRKPQPQGTMVPPSDYTLSQMLEVLPEGFLDRTANIGRVIGWAPQVQVLAHQATGGFVSHCGWNSTLESIYYGVPIATWPLFAEQQTNAFELVRELKIAVEIALDYRLEFDIGRNYLLDADKIERGIRGVLDKDGEVRKKVKEMSQKSRNVLLEGGSSYTYLGQLIDYITNQV
Enzyme activity in terms of product formation (in %) [1]: 97%

B5: Cinnamte 4 hydroxylase 4 coumarate coenzyme ligase fusion (C4H4CL) (SEQ ID NO: 12) Azospirillum sp. (protein)
chain: MDLLLLEKTLLALFIAATIAITISKLRGKRFKLPPGPIPVPVFGNWLQVGDDLNHRNLTDLAKRFGDIFLLRMGQRNLVVVSSPELAKEVLHTQGVEFGSRTRNVVFDIFTGKGQDMVFTVYGTLAEMRRIMTVPFFTNKVVQQYRFGWEFEAQSVVDDVKKNPEACSSGIVLRRRLQLMMYNIMYRIMFDRRFESEEDPLFVKLKALNGERSRLAQSFEYNYGDFIPILRPFLKGYLKLCKEVKDRRLQLFKDYFVDERKKLGSTKSTTNEGLKCAIDHILDAQQKGEINDDNVLYIVENINVAAIETTLWSIEWGIAELVNHQKIQNKVREEIDRVLGPGHQVTEPDLQKLPYLQAVIKETLRLRMAIPLLVPHMNLHDAKLSGFDIPAESKILVNAWWLANNPAQWKKPEEFRPERFLEEESHVEANGNDFRYLPFGVGRRSCPGIILALPILGITLGRLVQNFELLPPPGQSKIDTAEKGGQFSLHILKHSTIVCKPRSFNGGGGSGGGGSGGGGSMTIQRWWRNRESLNRVLCDLLAGEFARLRPGGSPPAHPHRWPETLPLGPDGVGADSLDLLQLAAALNEALHLHRSGIEDYLLMHRTVGDWLDVCEAALGRFDGALSFRTSGSTGEGKRCEHPLAALEEEADALAALLSGGAEAPRRVVSVVPAHHIYGFLFTVLLPDRLAVPVVDGRGTSPGGLAARLGPGDLVVAHPDWWGALLRSGAALPDGVTGTSSTAPCPPDTARGVRGVGLARLVEVFGSSETAGLGWRESPDAPFRPFPWWRFGDDGRVTRRLADGTVLSATLQDRLSHDEEGFRPSGRLDTVVQVGGVNVSLAGVQAHLAGHPDVEAAAVRLMRPEEGTRLKAFIVPARTAPPREELYRRLTDWIEATLPAPHRPRALAFGPALPVNGMGKPCDWPLATCR
modifications: Depicts the amino acid sequence of the enzyme Cinnamte 4 hydroxylase 4 coumarate coenzyme ligase fusion (C4H4CL)
Enzyme activity in terms of product formation (in %) (substrate tested: Cinnamate): 97%

B6: Glycosyltransferase (UGT) (SEQ ID NO: 48) Barbarea vulgaris (protein, listed as Barbarea vulgaris)
chain: MKSELVFIPYPGIGHLRPTVEVAKLLVDREPRLSISVFILPFISGDEVGASDYISALSAASNDRLRYKVIFTGDQETAEPTKLTLHIENQVPKVRTAVAKLIDEYSKLLDSPKIVGFVLDMFCTSMIDVANEFELPSYMFFTSSAGILAVSFHVQVLYDEKKCNFSETMFEDSEAELILPSLTRPYPVKSLPYALFRTEMLIMHVNLARRFRELKGILVNTVDELEPHALKFLLSGITPPAYPVGPLLHLESNQDDESEDEKRSEIIMWLDEQPASSVVFLCFGSMGGFSEEQTREIAIALERSGHRFLWSLRRESPNIDKELPGEFTNLEEVLPEGFFDRTKGIGKVIGWAPQVAVLENPAIGGFVTHGGWNSVLESLWFGVPTAMWPLYAEQKFNAFVMVEELGLAVEIKKYWRGDLLLGRSAMEIVTADEIERGITCLMQQDSDVRKRVKEMKGKCHVALMDGGSSTLALDKFVEDVTKNI
Enzyme activity in terms of product formation (in %) [1]: 43%
